Measured values from article PMC10350235.

Molecular target: endogenous cTn(I-C) dimer (cTnI with TnC) (human (endogenous in heart tissue)) (UniProt P19429)
Assay: native MS; native top-down MS on a 12-T FTICR, nanoelectrospray by direct infusion, 200 mM ammonium acetate; the heterotrimer was enriched as a whole from heart tissue on NP-Pep, isolated and its subunits ejected by CAD (complex-up, complex-down)

Chain of endogenous cTn(I-C) dimer (cTnI with TnC) (human (endogenous in heart tissue)) (P19429 whole entry, the tested form may be a part): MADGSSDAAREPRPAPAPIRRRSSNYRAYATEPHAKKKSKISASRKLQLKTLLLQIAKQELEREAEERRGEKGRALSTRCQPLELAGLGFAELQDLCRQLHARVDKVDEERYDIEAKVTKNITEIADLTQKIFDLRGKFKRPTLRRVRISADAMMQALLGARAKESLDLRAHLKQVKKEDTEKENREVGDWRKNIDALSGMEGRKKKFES

endogenous cardiac troponin T (cTnT) (natural protein)
stoichiometry N (cTnT:cTnI:TnC): 1
